# Test results: paper PMC7948739 (The Journal of Biological Chemistry, 2020)
# What was measured:
# [1] = target: the molecule itself; assay: AUC; sedimentation velocity, DEC-205 ECD 0.2 mg ml^-1, TBS pH 8.0, 150 mM NaCl, 20 °C, 37,000 RPM
# [2] = target: the molecule itself; assay: SEC-MALS; DEC-205 ECD, 50 ul at 1 mg ml^-1, Superdex 200 5/150, TBS (10 mM Tris-HCl pH 8.0, 150 mM NaCl)
# [3] = target: the molecule itself; assay: AUC; sedimentation velocity, DEC-205 ECD 0.2 mg ml^-1, BIS-TRIS buffer pH 6.0, 150 mM NaCl, 20 °C, 37,000 RPM
protein,measurement,setting,value
"soluble DEC-205 ectodomain (ECD), residues 1-1664 (domain or fragment, human, UniProt O60449-1 28-1664, looked up, signal peptide in the construct; Monomer at pH 6.0, tetramer at pH 8.0; In both reconstructions only R30 to E1383 (CysR to CTLD8) could be built; CTLD9 and CTLD10 are invisible; also called CD205; source: HEK293S, transient transfection, secreted, purified (FLAG resin, size exclusion)) SGRAANDPFTIVHGNTGKCIKPVYGWIVADDCDETEDKLWKWVSQHRLFHLHSQKCLGLDITKSVNELRMFSCDSSAMLWWKCEHHSLYGAARYRLALKDGHGTAISNASDVWKKGGSEESLCDQPYHEIYTRDGNSYGRPCEFPFLIDGTWHHDCILDEDHSGPWCATTLNYEYDRKWGICLKPENGCEDNWEKNEQFGSCYQFNTQTALSWKEAYVSCQNQGADLLSINSAAELTYLKEKEGIAKIFWIGLNQLYSARGWEWSDHKPLNFLNWDPDRPSAPTIGGSSCARMDAESGLWQSFSCEAQLPYVCRKPLNNTVELTDVWTYSDTRCDAGWLPNNGFCYLLVNESNSWDKAHAKCKAFSSDLISIHSLADVEVVVTKLHNEDIKEEVWIGLKNINIPTLFQWSDGTEVTLTYWDENEPNVPYNKTPNCVSYLGELGQWKVQSCEEKLKYVCKRKGEKLNDASSDKMCPPDEGWKRHGETCYKIYEDEVPFGTNCNLTITSRFEQEYLNDLMKKYDKSLRKYFWTGLRDVDSCGEYNWATVGGRRRAVTFSNWNFLEPASPGGCVAMSTGKSVGKWEVKDCRSFKALSICKKMSGPLGPEEASPKPDDPCPEGWQSFPASLSCYKVFHAERIVRKRNWEEAERFCQALGAHLSSFSHVDEIKEFLHFLTDQFSGQHWLWIGLNKRSPDLQGSWQWSDRTPVSTIIMPNEFQQDYDIRDCAAVKVFHRPWRRGWHFYDDREFIYLRPFACDTKLEWVCQIPKGRTPKTPDWYNPDRAGIHGPPLIIEGSEYWFVADLHLNYEEAVLYCASNHSFLATITSFVGLKAIKNKIANISGDGQKWWIRISEWPIDDHFTYSRYPWHRFPVTFGEECLYMSAKTWLIDLGKPTDCSTKLPFICEKYNVSSLEKYSPDSAAKVQCSEQWIPFQNKCFLKIKPVSLTFSQASDTCHSYGGTLPSVLSQIEQDFITSLLPDMEATLWIGLRWTAYEKINKWTDNRELTYSNFHPLLVSGRLRIPENFFEEESRYHCALILNLQKSPFTGTWNFTSCSERHFVSLCQKYSEVKSRQTLQNASETVKYLNNLYKIIPKTLTWHSAKRECLKSNMQLVSITDPYQQAFLSVQALLHNSSLWIGLFSQDDELNFGWSDGKRLHFSRWAETNGQLEDCVVLDTDGFWKTVDCNDNQPGAICYYSGNETEKEVKPVDSVKCPSPVLNTPWIPFQNCCYNFIITKNRHMATTQDEVHTKCQKLNPKSHILSIRDEKENNFVLEQLLYFNYMASWVMLGITYRNKSLMWFDKTPLSYTHWRAGRPTIKNEKFLAGLSTDGFWDIQTFKVIEEAVYFHQHSILACKIEMVDYKEEYNTTLPQFMPYEDGIYSVIQKKVTWYEALNMCSQSGGHLASVHNQNGQLFLEDIVKRDGFPLWVGLSSHDGSESSFEWSDGSTFDYIPWKGQTSPGNCVLLDPKGTWKHEKCNSVKDGAICYKPTKSKKLSRLTYSSRCPAAKENGSRWIQYKGHCYKSDQALHSFSEAKKLCSKHDHSATIVSIKDEDENKFVSRLMRENNNITMRVWLGLSQHSVDQSWSWLDGSEVTFVKWENKSKSGVGRCSMLIASNETWKKVECEHGFGRVVCKVPLG",stoichiometry N,[1],6
same,stoichiometry N,[2],4
same,stoichiometry N,[3],2
